Experimental data as given in patent US20250333486A1, “Anti-HSP90 alpha antibody and uses thereof” (NATIONAL HEALTH RESEARCH INSTITUTES, priority 2021, published 2025).
Entries after “also recorded” stand apart in the source; their conditions may differ.

Legend:
[1] = tested on: ARPE-19 retinal pigmented epithelial cells; assay: Retinal cell toxicity assay (MTS); format: cell-based, human; details: 72 h, up to 594.3 nM (100 μg/ml)
Method: ARPE-19 cells were seeded onto 96-well plates at a density of 4000 cells per well, and then treated in triplicate with various concentrations of 17-AAG or anti-HSP90α antibody HH01 for 72 h. The 3-(4,5-dimethylthiazol-2-yl)-5-(3-carboxymethoxyphenyl)-2-(4-sulfophenyl)-2H-tetrazolium (MTS; Sigma-Aldrich) assay was employed and OD490 was measured to evaluate cell viability upon each treatment.

[2] = tested on: Panc 02 plus EndoMT cell grafts; assay: Therapeutic efficacy in desmoplastic mouse PDAC transplant model; format: in vivo; details: 5 mg/kg IV, 3 times at 7-day intervals from Day-20
Method: (§1) Mouse experiments were performed with the permission of the Institutional Animal Care and Use Committee of National Health Research Institutes (NHRI-IACUC-106031-A, 109022-M2-S02, and 109196-A). To establish a desmoplastic tumor transplant model, C57BL/6 mice at 12 weeks of age were subcutaneously inoculated with a mix of Panc 02 cells and EndoMT-derived CAFs (i.e. OPN-treated 3B-11 cells). See Fan C S, Chen L L, Hsu T A, et al. Endothelial-mesenchymal transition harnesses HSP90α-secreting M2-macrophages to exacerbate pancreatic ductal adenocarcinoma. J Hematol Oncol 2019;12:138; and Chua K V, Fan C S, Chen L L, Chen C C, Hsieh S C, Huang T S. Octyl gallate induces pancreatic ductal adenocarcinoma cell apoptosis and suppresses endothelial-mesenchymal transition-promoted M2-macrophages, HSP90α secretion, and tumor growth. Cells 2020;9(1):91. Sizes of developing tumors were superficially measured with a Vernier caliper, and tumor volumes were calculated with the formula ½×length×width^2. Real tumors were weighed when mice were sacrificed. To establish a desmoplastic tumor transplant model in humanized mice, NOD-SCID IL2R^null (ASID) mice transplanted with human hematopoietic stem cells (hHSC) were subcutaneously inoculated with a mix of PANC-1 cells and OPN-treated HUVECs. The employed hHSC-transplanted ASID mice were produced from the National Laboratory Animal Center (Taipei, Taiwan) and all contained human CD45^+ cell levels more than 38% of total lymphocytes. To establish an M2-macrophage-exacerbated mouse PDAC model, C57BL/6 mice were subcutaneously inoculated with a mix of Panc 02 cells and rHSP90α-treated BMDMs. Additionally, LSL-KrasG12D/Pdx1-Cre transgenic mice were adopted as a spontaneously PDAC-developing mouse model to evaluate the therapeutic efficacy of HH01 antibody. LSL-KrasG12D and Pdx1-Cre breeder mice were obtained from the Mouse Models of Human Cancers Consortium Repository of the National Cancer Institute (Frederick, Maryland, USA). LSL-KrasG12D mice were crossed with Pdx1-Cre mice to generate LSL-KrasG12D/Pdx1-Cre mice.
(§2) For assaying the HSP90α-binding activities of the prepared antibodies, 96-well plates were coated with 12.5 ng/ml of rHSP90α in the capture buffer (BioLegend, San Diego, CA, USA) by overnight incubation at 4° C. The coated plates were washed twice with PBST and then blocked with PBST plus 3% bovine serum albumin (BSA). […] The reactions were stopped by the addition of 0.5 M H2SO4, and OD450 values were measured by an Infinite M200 microplate reader (TECAN, Männedorf, Switzerland). Additionally, the immunoglobulin (IgG) isotype characterization of anti-HSP90α antibodies was performed by using the Mouse Ig Isotyping ELISA Ready-Set-Go!™ Kit (eBioscience™, Thermo Fisher Scientific, Waltham, MA, USA). […]

[3] = tested on: K-Ras^G12D-induced PDAC in LSL-KrasG12D/Pdx1-Cre mice; assay: Therapeutic efficacy in K-Ras^G12D-induced desmoplastic mouse PDAC model; format: in vivo
Method: as §1
For assaying the HSP90α-binding activities of the prepared antibodies, 96-well plates were coated with 12.5 ng/ml of rHSP90α in the capture buffer (BioLegend, San Diego, CA, USA) by overnight incubation at 4° C. The coated plates were washed twice with PBST and then blocked with PBST plus 3% bovine serum albumin (BSA). The prepared antibodies were applied and incubated 2 h at room temperature. After three washes with PBST, horseradish peroxidase-conjugated secondary antibody was added and incubated at 37° C. for another 1 h. After three washes, 0.3 mg/ml of 3,3′,5,5′-tetramethylbenzidine in 0.015% H2O2 was added into each well and incubated in the dark at room temperature for 10 min. The reactions were stopped by the addition of 0.5 M H2SO4, and OD450 values were measured by an Infinite M200 microplate reader (TECAN, Männedorf, Switzerland). Additionally, the immunoglobulin (IgG) isotype characterization of anti-HSP90α antibodies was performed by using the Mouse Ig Isotyping ELISA Ready-Set-Go!™ Kit (eBioscience™, Thermo Fisher Scientific, Waltham, MA, USA). The ELISA protocol was also used to assay the secreted HSP90α levels of mouse serum samples as described previously. See Chen J S, Hsu Y M, Chen C C, Chen L L, Lee C C, Huang T S. Secreted heat shock protein 90α induces colorectal cancer cell invasion through CD91/LRP-1 and NF-κB-mediated integrin αV expression. J Biol Chem 2010;285(33):25458-66.
Mouse paraffin-embedded tissue sections were deparaffinized by xylene and rehydrated by a series of ethanol dilutions. Masson trichrome staining was performed using a Trichrome Stain Kit (ScyTek Laboratories Inc., Utah, USA) according to the manufacturer's protocol. The stained sections were dehydrated in graded ethanol solutions and xylene, and finally mounted with mounting solution overnight in the dark at room temperature. […]

[4] = tested on: PANC-1 cells; assay: Cell spheroid-forming assay, rHSP90α-induced PANC-1 spheroids; format: cell-based, human; details: 15 μg/ml rHSP90α plus 10 μg/ml antibody
Method: (§3) One thousand cancer cells were seeded onto each well of 24-well plates pre-coated with a 4-mm thick layer of 0.5% agarose. After incubation 24 h with serum-free medium at 37° C. plus a 5% CO2 humidified atmosphere, cells were added with PBS or 15 μg/ml of rHSP90α in the absence or presence of 10 μg/ml of control IgG or the tested anti-HSP90α antibody. The incubation was kept for 10-14 days with supplements of some fresh serum-free medium every 3 days. Finally, the cell spheroids characterized by tight, non-adherent, and >100 μm in diameter were photographed and counted under an Olympus IX 71 inverted microscope (Center Valley, PA, USA). The spheroid formation % was calculated by the formula: (number of cell spheroids/1000)×100%.

[5] = Solubility of antibody; format: physicochemical
[6] = tested on: SW620, PANC-1, and Panc 02 cells; assay: Cell spheroid-forming assay, rHSP90α-induced gain-of-stemness; format: cell-based, human and mouse; details: conclusion statement
Method: as §3

[7] = Dynamic Light Scattering assay; format: physicochemical
[8] = tested on: Panc 02 plus EndoMT cell grafts; assay: Prophylactic efficacy in desmoplastic mouse PDAC transplant model; format: in vivo; details: 5 mg/kg IV, 8 doses at 3-day intervals from Day-4
Method: as §1, §2

B1: HH01: humanized anti-HSP90α IgG1 antibody, mutant of Clone-2-chimera; VH SEQ ID NO: 12, VL SEQ ID NO: 17 (antibody, V domains shown)
VH: EVQLVESGGGLVQPGGSLRLSCAASGFTFKTYAMNWVRQAPGQGLEWVARIRSKSRNYATYYADSVKDRFTISRDDSKNQFYLQMNNLRTEDTAVYYCVVGGSGFDYWGQGTTLTVSS
VL: DVVMTQTPLSLPVSLGDQASISCRSSQSIVHSNGNTYLEWYLQKPGQSPQLLIYKVSNRFSGVPDRFSGSGSGTDFTLTISSVEAEDLGVYYCFQGSHVPWTFGGGTKLEIK
modifications: Heavy chain variable region; Light chain variable region
- cytotoxicity in ARPE-19 cells [1]: did not cause any obvious cytotoxicity; also recorded: not cytotoxic
- serum HSP90α levels [2]: significant decreases
- tumor desmoplasia [2]: significant decreases
- tumor growth by weight on Day-41 [2]: indeed repressed
- tumor growth kinetics [2]: totally suppressed
- mice still surviving on Day-450 ([3]; 5 mg/kg IV, 10-dose schedule from 6 months of age): 7 of 9
- median survival time ([3]; 5 mg/kg IV, 10-dose schedule, Kaplan-Meier, end point Day-450): > 450 days
- liver desmoplasia ([3]; Masson trichrome staining): significant improvement
- elevation of serum HSP90α levels ([3]; after vs. before treatments): effectively abolished
- pancreatic desmoplasia ([3]; mice still surviving on Day-450): drastically recovered
- tumor nodules on livers ([3]; one mouse per group): fewer nodules than IgG-treated mouse
- suppression of rHSP90α-induced spheroid formation of PANC-1 cells [4]: most outstanding efficacy
- water solubility [5]: quite water-soluble
- solubility in PBS ([5]; PBS): > 10000 µg/mL
- spheroid-forming activities of pancreatic adenocarcinoma and colorectal cancer cell lines [6]: potently suppresses
- aggregate formation [7]: did not easily form aggregate; also recorded: not easy to form aggregate
- size of average diameter ([7]; Dynamic Light Scattering): 19.33 nm
- size range ([7]; Dynamic Light Scattering): 10-50 nm
- kinetics of the tumor growth [8]: potently suppressed
- serum HSP90α levels [8]: significantly reduced
- tumor desmoplasia (Masson trichrome) [8]: significantly prevented
- tumor sizes (weights) on Day-30 [8]: significantly repressed
